± gives the standard deviation of the averaged measurements.
Test system: Saccharomyces cerevisiae
Test: protein stability index of tFT-peptide fusion (C-terminal peptide) (PSI (0-1 scale)); higher = more stable (slower turnover)
Conditions: genetic background: wild type; temperature: 30 C
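Note: PSI is a weighted mean of sequencing reads over stability bins, variants kept only with over 10 reads, mCherry proximal and sfGFP distal, peptide attached via GGGS linker.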

Row | Sequence | protein stability index
1 | GINFEIKFKRYN | 0.764 ± 0.055
2 | FCSLLLFRFVVL | 0.517 ± 0.015
3 | SPLETLLCTPSI | 0.675 ± 0.019
4 | PAPSASPPLLRC | 0.722 ± 0.03
5 | DRLGQYSLIQRG | 0.687 ± 0.022
6 | FPRSCETPARAL | 0.6607 ± 0.0043
7 | LRPPPPRGPSPP | 0.689 ± 0.023
8 | IGSLASRSALLL | 0.676 ± 0.0083
9 | FLSALLALPASP | 0.698 ± 0.0064
10 | PPWPLVVQPSPP | 0.703 ± 0.041
11 | RDPIGRPEMSKI | 0.67 ± 0.086
12 | SLFLLFRSRACS | 0.539 ± 0.011
13 | PSPTAPGPSIPP | 0.667 ± 0.049
14 | YSGRGLISNHGY | 0.723 ± 0.043
15 | EEVVAQYCITLS | 0.5864 ± 0.0021
16 | SCVNGYSVCMCW | 0.524 ± 0.046
17 | FWAWEGCTRALM | 0.681 ± 0.07
18 | RSFVSRGSILWF | 0.723 ± 0.13
19 | REGGVLGVVKWS | 0.668 ± 0.02
20 | ELKVVVTPLVPS | 0.588 ± 0.053
21 | EVAVELIGAPGL | 0.699 ± 0.1
22 | GRSNRRPWRSGL | 0.649 ± 0.018
23 | AGSSIPLPASRA | 0.705 ± 0.026
24 | NIRLRRKIIINK | 0.562 ± 0.088
25 | SLPPLASPPASI | 0.72 ± 0.1
26 | GPPPAPPPLDAL | 0.734 ± 0.053

Row | Sequence | protein stability index
27 | GGGARQAGGDNI | 0.666 ± 0.045
28 | CSPCSFCDLVSH | 0.691 ± 0.03
29 | VGAGGAWSGCGP | 0.675 ± 0.046
30 | SPSPPSLLPAPS | 0.74 ± 0.062
31 | RILVYRKENRKN | 0.678 ± 0.052
32 | VVGAGGLCNMDV | 0.635 ± 0.029
33 | TSTGARTMFNPV | 0.646 ± 0.061
34 | FCLGSFMFEGGR | 0.723 ± 0.032
35 | CYCTYHDQDSVS | 0.757 ± 0.032
36 | PALPPASPRPAL | 0.776 ± 0.072
37 | TPQPPPHSTYRC | 0.702 ± 0.031
38 | GQGKWGGGGDER | 0.68276 ± 0.0003
39 | ACDVPSERAVSG | 0.628 ± 0.024
40 | SPTPSLPFPALF | 0.737 ± 0.097
41 | TRLTSSGVGSVP | 0.683 ± 0.1
42 | VAPLTPPPSLPF | 0.671 ± 0.014
43 | TVPGTARGQRPP | 0.629 ± 0.03
44 | RGGGSWWCGGDQ | 0.76 ± 0.024
45 | GGWEGLRGLGVG | 0.634 ± 0.031
46 | AHLLFGFGAPVS | 0.714 ± 0.15
47 | GLMYDGVGCGGD | 0.671 ± 0.012
48 | ASSLSHLSLPAP | 0.695 ± 0.017
49 | TGEIREEWRKNI | 0.54 ± 0.03
50 | ETRIRGVMPRAY | 0.659 ± 0.014
51 | VRGLGFVSWFFL | 0.651 ± 0.025
52 | PFRFLFGISLFF | 0.559 ± 0.015

Row | Sequence | protein stability index
53 | LDSGQALLSIPI | 0.643 ± 0.12
54 | LWAQRASPPWYQ | 0.606 ± 0.047
55 | ELGLGGCGGLGV | 0.7 ± 0.03
56 | GTTNRMVTQKGF | 0.712 ± 0.024
57 | KNVILKKNKNWL | 0.6746 ± 0.0063
58 | QIIRKKSKVPTH | 0.686 ± 0.057
59 | PRPPRSPLPSSL | 0.7 ± 0.041
60 | ECAGVVRAKLPA | 0.718 ± 0.05
61 | RQPPPRSPPSYL | 0.75 ± 0.063
62 | HSRAPNNWHRGI | 0.708 ± 0.043
63 | PIERISNSGKRP | 0.6928 ± 0.0017
64 | LGFFGGGRWAGG | 0.717 ± 0.025
65 | FDFFLPFLCSSL | 0.827 ± 0.2
66 | VIQCIGANGAII | 0.645 ± 0.052
67 | SKYVVQSENITG | 0.699 ± 0.015
68 | FPPVPLVTDTFT | 0.675 ± 0.034
69 | LPPAPAPPQCST | 0.675 ± 0.052
70 | EKTKEHRNDSQR | 0.695 ± 0.014
71 | VFLSLLYWSPIG | 0.643 ± 0.038
72 | WMTFKKLQCNRT | 0.682 ± 0.027
73 | GGRGGRSGTEGE | 0.6763 ± 0.0011
74 | VNPAFRTSICHH | 0.584 ± 0.12
75 | GVSVGGSSGGSG | 0.6868 ± 0.0048
76 | SNQKGQIYYEPS | 0.706 ± 0.08
77 | GATGGACGVWAG | 0.668 ± 0.048
78 | RHYGVTSLISLQ | 0.674 ± 0.01

Row | Sequence | protein stability index
79 | RGRRRGGQQIAE | 0.666 ± 0.007
80 | RLGWGGVGGAGV | 0.711 ± 0.033
81 | TSWTTVYSSLLT | 0.672 ± 0.088
82 | KNCARIKERKDV | 0.627 ± 0.03
83 | QIHGQKNFKTLD | 0.704 ± 0.078
84 | PPPLPLVPPSPP | 0.651 ± 0.033
85 | RKKKKKKRGKNR | 0.621 ± 0.043
86 | EVRRGVGGAWEG | 0.648 ± 0.011
87 | LPLRYFSFPDPF | 0.6949 ± 0.0035
88 | WSCTPRTPPPPR | 0.7925 ± 0.002
89 | LRSGGVPVFWGS | 0.721 ± 0.043
90 | GEYLWVHRIISE | 0.679 ± 0.086
91 | VAAASPLFSRID | 0.712 ± 0.014
92 | PAPPFPIRPPAA | 0.653 ± 0.015
93 | SSILQFSCFHGN | 0.707 ± 0.036
94 | PMPGRSEREYQV | 0.711 ± 0.087
95 | LRARMACPLIIS | 0.663 ± 0.025
96 | YPPCSPGPLAPS | 0.672 ± 0.026
97 | VLIRRLPFTSYL | 0.6365 ± 0.0034
98 | APPSPPPPTSHP | 0.777 ± 0.051
99 | RAVFFLQAHCSL | 0.674 ± 0.0072
100 | RTLAGLLVDSHV | 0.679 ± 0.041
101 | KKKKEEKKKSKK | 0.644 ± 0.041
102 | PTPPTAAPAAPR | 0.714 ± 0.053
103 | HTLQDERNRRRD | 0.696 ± 0.072
104 | LWGGGGAGYWVG | 0.732 ± 0.035

Row | Sequence | protein stability index
105 | GGLLGRLWDGGA | 0.723 ± 0.04
106 | LCPTGAPLYFSL | 0.64 ± 0.093
107 | GGELGGTGVGGG | 0.6881 ± 0.0016
108 | QPVGAAQWGSQS | 0.715 ± 0.028
109 | GGMMRGHRHRCW | 0.812 ± 0.0095
110 | FPRPHPTPLPPG | 0.689 ± 0.013
111 | GVVMMGERGGER | 0.685 ± 0.049
112 | VGGVWVDVMGFC | 0.793 ± 0.16
113 | PPLPPSSMPPSH | 0.685 ± 0.035
114 | HLLSPPLPPSPA | 0.728 ± 0.039
115 | PSPPPAIFPFVS | 0.71 ± 0.059
116 | QTVFRQRLKEPF | 0.644 ± 0.038
117 | LSVSLCWRHFFS | 0.693 ± 0.012
118 | PTPRPTRSPPPP | 0.689 ± 0.01
119 | ALSLPPRLRTFY | 0.663 ± 0.05
120 | GGWGGAGQWADG | 0.706 ± 0.011
121 | AEVRRQEGTVGV | 0.707 ± 0.036
122 | CTICQLASKAIC | 0.599 ± 0.04
123 | RRAKMSWCCKKY | 0.69 ± 0.0098
124 | LRENKGPAPPLL | 0.651 ± 0.0087
125 | AVRDGSGCQCVG | 0.6797 ± 0.0012
126 | LQSSSCLLYPSS | 0.681 ± 0.026
127 | LASSGQSWLVVF | 0.563 ± 0.011
128 | HLSPPPLMPPCC | 0.759 ± 0.067
129 | LSAEAGAGLRAM | 0.684 ± 0.034
130 | SPPPAPVPAPPR | 0.678 ± 0.048

Row | Sequence | protein stability index
131 | AVLGWAGGGWAG | 0.694 ± 0.11
132 | YGVCFKAFQFKL | 0.676 ± 0.056
133 | KTGVRAVSLTGS | 0.696 ± 0.038
134 | CLVLDILSETWL | 0.71 ± 0.036
135 | RVGRGGGRETRG | 0.699 ± 0.031
136 | TRSRAQTEAHRR | 0.669 ± 0.032
137 | FLSGVGSHLTGP | 0.653 ± 0.019
138 | PPPTPTPPSQPT | 0.681 ± 0.012
139 | RGLVSPPPPLPS | 0.681 ± 0.024
140 | YSASPLSCICPP | 0.652 ± 0.053
141 | PRPGPPPPPPSP | 0.713 ± 0.035
142 | LARPPPPSNHSP | 0.695 ± 0.0094
143 | KKKKKNNKRQKQ | 0.593 ± 0.089
144 | YALWRFRSLADV | 0.695 ± 0.1
145 | DKIYNRNSKRRI | 0.6418 ± 0.0055
146 | PPLPLPTLPCRP | 0.644 ± 0.035
147 | CTCTVSMLPRTC | 0.639 ± 0.017
148 | GRTNQKKEWIIR | 0.718 ± 0.01
149 | VRKGSERKKAGN | 0.6686 ± 0.0043
150 | VARPSGQRVRHA | 0.656 ± 0.085
151 | IVSGVSVHLGVG | 0.6115 ± 0.0029
152 | NKNKKKIKHKRK | 0.669 ± 0.051
153 | QSRHCHPTPKRL | 0.65 ± 0.031
154 | GNSAGSGGGGRF | 0.706 ± 0.061
155 | TVSAPLFFPLNW | 0.663 ± 0.034
156 | PSPFPPPLPPHL | 0.767 ± 0.064

Row | Sequence | protein stability index
157 | VWGGYGQFYGWK | 0.606 ± 0.049
158 | PTTTRSKDKVQR | 0.738 ± 0.041
159 | PPDPRLPRHDRP | 0.755 ± 0.018
160 | LPRSLSGCGAGV | 0.711 ± 0.015
161 | LVFTDDGGVRSL | 0.609 ± 0.03
162 | HLLPRPIRPSTP | 0.664 ± 0.074
163 | GVGLSGVGGLGR | 0.6439 ± 0.004
164 | LLFTFLPFRTVR | 0.709 ± 0.044
165 | LAGGRCGCGTHD | 0.684 ± 0.042
166 | RGVGWGGLEGIG | 0.5235 ± 0.0014
167 | HSRPRRQPPHSP | 0.705 ± 0.018
168 | LFLDSTSTLPAP | 0.662 ± 0.028
169 | PPSPRLFRFLPP | 0.631 ± 0.074
170 | VKKVSSVGGREG | 0.643 ± 0.1
171 | TLRRYSFTKKNL | 0.737 ± 0.069
172 | PPPPPSPAPGIP | 0.66 ± 0.055
173 | KTKRKKKRRRRE | 0.705 ± 0.067
174 | KKKNKKKQKEEK | 0.693 ± 0.012
175 | FSPDSDFTRCAP | 0.701 ± 0.002
176 | PPPDPPLSPPPP | 0.676 ± 0.087
177 | LLPALPLPLSLT | 0.64 ± 0.013
178 | TSVVLPGPAVSR | 0.732 ± 0.049
179 | LGLGPKNLSYSE | 0.676 ± 0.043
180 | RAWPLLPTCPPP | 0.7 ± 0.019
181 | SPRRWVSGHPRG | 0.711 ± 0.042
182 | VLLGFSDYLRVT | 0.698 ± 0.079

Row | Sequence | protein stability index
183 | PQGGREYIYSPQ | 0.718 ± 0.019
184 | GLVGCLFFCCIG | 0.558 ± 0.013
185 | KNQKTTKKKKKI | 0.543 ± 0.019
186 | VRRTRGGLRGWS | 0.6987 ± 0.0053
187 | GVFCWVGLSAFL | 0.5866 ± 0.004
188 | PQPPPRSPPSYL | 0.75 ± 0.049
189 | PPVPDSFAAFLR | 0.743 ± 0.089
190 | FPLPPFPLTPPP | 0.64 ± 0.054
191 | LSSPCAFTCPLL | 0.7139 ± 0.0062
192 | DAWSFHNGATGA | 0.676 ± 0.029
193 | PPPPLSTVPPPP | 0.811 ± 0.019
194 | PLPRLSYRPPTL | 0.663 ± 0.028
195 | LSSHLHCVTLFT | 0.606 ± 0.059
196 | RGGGVGRGLGGK | 0.605 ± 0.066
197 | EGDGAVGKTRGD | 0.691 ± 0.042
198 | LPSPSPPPPLLP | 0.743 ± 0.022
199 | TLDTCVPGANTF | 0.7127 ± 0.001
200 | GGLGGWAECGRW | 0.748 ± 0.11
201 | TNSKLTKERTEI | 0.699 ± 0.049
202 | LSPPLSLPPASP | 0.731 ± 0.032

Reference: the supplement of paper PMC10724198
